7 molecules from patent US9695461B2, “Method for adapting a hydrolytic enzyme to a component that stabilizes the hydrolytic enzyme” (Henkel AG & Co. KGaA, priority 2011, dated 2017) can be followed below.

This data set has as its system protease according to SEQ ID NO: 3. The data set is described as follows: Relative proteolytic activity with reversible inhibitor in liquid surfactant preparation (Example 1). It counts as biochemical. To be noted: 50% conc. surfactant preparation, 0.92 mM AAPF, 25° C., pH 8.6, relative to same protease without inhibitor; for relative activity, 3-HPBA: 3-HPBA in amount inhibiting starting enzyme by 20-40%; for relative activity, 4-FPBA: 4-FPBA in amount inhibiting starting enzyme by 20-40%; for relative activity, Boric acid: boric acid in amount inhibiting starting enzyme by 20-40%; for relative activity, BMA: benzylmalonic acid in amount inhibiting starting enzyme by 20-40%. The source says:
The relative activity to be determined in process step c) of the hydrolytic enzyme modified in process step b) is given by [measured activity of the hydrolytic enzyme modified in process step b) in the presence of the component that stabilizes the hydrolytic enzyme] divided by [measured activity of the hydrolytic enzyme modified in process step b) in the absence of the component that stabilizes the hydrolytic enzyme] multiplied by 100.
The relative activity of the starting enzyme to be determined in process step c) is given by [measured activity of the starting enzyme in the presence of the component that stabilizes the hydrolytic enzyme] divided by [measured activity of the starting enzyme in the absence of the component that stabilizes the hydrolytic enzyme] multiplied by 100.
The nucleic acid sequence of the hydrolytic enzyme present on a plasmid was modified individually or in combination as indicated in Tables 1 and 2 using site directed mutagenesis by means of specific, adapted primers using a Phusion Hot Start Polymerase at the positions S166, A187, F189 or Q191 in the counting according to SEQ ID NO: 1, and the resulting variants were transformed into a suitable host. Active clones were selected by means of a protease-sensitive medium and the DNA sequence was sequenced after isolation of the plasmid for identification purposes. The modified proteases were expressed in the Bacillus host and prepared for the activity determination.
The activity was determined in a liquid preparation that was constituted as follows (all data in wt %): 0.3-0.5% xanthan, 0.2-0.4% defoamer, 6-7% glycerin, 0.3-0.5% ethanol, 4-7% FAEOS (fatty alcohol ether sulfate), 24-28% non-ionic surfactants, 1-2% sodium citrate (dihydrate), 2-4% soda, 14-16% cocoanut fatty acids, 0.5% HEDP (1-hydroxyethane-(1,1-diphosphonic acid)), 0-0.4% PVP (polyvinyl pyrrolidone) 0-0.5% optical brightener, 0-0.001% % colorant, the remainder being demineralized water.
To a 50% conc. liquid preparation of the liquid surfactant preparation were added 0.92 mM AAPF. The reversible inhibitor to be tested was also comprised in the required amount to inhibit the starting enzyme by 20-40%. 20 μl of the respective protease (starting enzyme as well as modified protease variants) were added and the proteolytic activity determined from the release of the chromophore para-nitroaniline (pNA) from the substrate suc-L-Ala-L-Ala-L-Pro-L-Phe-p-nitroanilide (suc-AAPF-pNA). The protease cleaves the substrate and releases pNA. The released pNA causes the extinction at 410 nm to increase; the change in extinction as a function of time is a measure of the enzymatic activity (see Del Mar et al., 1979). The measurement was carried out at a temperature of 25° C., at pH 8.6 and a wavelength of 410 nm.
The measured activity was compared with the activity of a reference formulation of the same protease sample without inhibitor and the respective relative activities of the modified proteases and the starting enzyme were determined. […] The results are presented in the following Tables 1 and 2 (the relative activities are each given).

B1: S166A: protease of SEQ ID NO: 3 with amino acid substitution S166A in the count according to SEQ ID NO: 1 (protein, listed as Bacillus lentus)
chain: AQSVPWGISRVQAPAAHNRGLTGSGVKVAVLDTGISTHPDLNIRGGASFVPGEPSTQDGNGHGTHVAGTIAALNNSIGVLGVAPSAELYAVKVLGADGEGAISSIAQGLEWAGNNGMHVANLSLGSPSPSATLEQAVNSATSRGVLVVAASGNSGASSIAYPARYANAMAVGATDQNNNRASFSQYGAGLDIVAPGVNVQSTYPGSTYASLNGTSMATPHVAGAAALVKQKNPSWSNVQIRNHLKNTATSLGSTNLYGSGLVNAEAATR
For the molecule B1, under “Table 1”, the “relative activity, 3-HPBA” value worked out at 83%; the “relative activity, 4-FPBA” value is listed as 61%; the “relative activity, Boric acid” value came to 76%.

B2: Q191R: protease of SEQ ID NO: 3 with amino acid substitution Q191R in the count according to SEQ ID NO: 1 (protein, listed as Bacillus lentus)
chain: AQSVPWGISRVQAPAAHNRGLTGSGVKVAVLDTGISTHPDLNIRGGASFVPGEPSTQDGNGHGTHVAGTIAALNNSIGVLGVAPSAELYAVKVLGADGEGAISSIAQGLEWAGNNGMHVANLSLGSPSPSATLEQAVNSATSRGVLVVAASGNSGASSISYPARYANAMAVGATDQNNNRASFSRYGAGLDIVAPGVNVQSTYPGSTYASLNGTSMATPHVAGAAALVKQKNPSWSNVQIRNHLKNTATSLGSTNLYGSGLVNAEAATR
With B2, for the setting “Table 2”, the “relative activity, BMA” value came out at 63% and the “relative activity, Boric acid” value was determined as 76%.

B3: S166Y: protease of SEQ ID NO: 3 with amino acid substitution S166Y in the count according to SEQ ID NO: 1 (protein, listed as Bacillus lentus)
chain: AQSVPWGISRVQAPAAHNRGLTGSGVKVAVLDTGISTHPDLNIRGGASFVPGEPSTQDGNGHGTHVAGTIAALNNSIGVLGVAPSAELYAVKVLGADGEGAISSIAQGLEWAGNNGMHVANLSLGSPSPSATLEQAVNSATSRGVLVVAASGNSGASSIYYPARYANAMAVGATDQNNNRASFSQYGAGLDIVAPGVNVQSTYPGSTYASLNGTSMATPHVAGAAALVKQKNPSWSNVQIRNHLKNTATSLGSTNLYGSGLVNAEAATR
As for B3, where the note is “Table 1”, the “relative activity, 3-HPBA” value stood at 58%; the “relative activity, 4-FPBA” value is reported as 100%; the “relative activity, Boric acid” value worked out at 68%.

B4: A187D/F189R: protease of SEQ ID NO: 3 with amino acid substitutions A187D and F189R in the count according to SEQ ID NO: 1 (protein, listed as Bacillus lentus)
chain: AQSVPWGISRVQAPAAHNRGLTGSGVKVAVLDTGISTHPDLNIRGGASFVPGEPSTQDGNGHGTHVAGTIAALNNSIGVLGVAPSAELYAVKVLGADGEGAISSIAQGLEWAGNNGMHVANLSLGSPSPSATLEQAVNSATSRGVLVVAASGNSGASSISYPARYANAMAVGATDQNNNRDSRSQYGAGLDIVAPGVNVQSTYPGSTYASLNGTSMATPHVAGAAALVKQKNPSWSNVQIRNHLKNTATSLGSTNLYGSGLVNAEAATR
For B4, where the note is “Table 2”, the “relative activity, BMA” value stood at 43% and the “relative activity, Boric acid” value was determined as 37%.

B5: S166G: protease of SEQ ID NO: 3 with amino acid substitution S166G in the count according to SEQ ID NO: 1 (protein, listed as Bacillus lentus)
chain: AQSVPWGISRVQAPAAHNRGLTGSGVKVAVLDTGISTHPDLNIRGGASFVPGEPSTQDGNGHGTHVAGTIAALNNSIGVLGVAPSAELYAVKVLGADGEGAISSIAQGLEWAGNNGMHVANLSLGSPSPSATLEQAVNSATSRGVLVVAASGNSGASSIGYPARYANAMAVGATDQNNNRASFSQYGAGLDIVAPGVNVQSTYPGSTYASLNGTSMATPHVAGAAALVKQKNPSWSNVQIRNHLKNTATSLGSTNLYGSGLVNAEAATR
On to B5, for which, under “Table 2”, the “relative activity, BMA” value came out at 80% and the “relative activity, Boric acid” value was 65%.

B6: F189R: protease of SEQ ID NO: 3 with amino acid substitution F189R in the count according to SEQ ID NO: 1 (protein, listed as Bacillus lentus)
chain: AQSVPWGISRVQAPAAHNRGLTGSGVKVAVLDTGISTHPDLNIRGGASFVPGEPSTQDGNGHGTHVAGTIAALNNSIGVLGVAPSAELYAVKVLGADGEGAISSIAQGLEWAGNNGMHVANLSLGSPSPSATLEQAVNSATSRGVLVVAASGNSGASSISYPARYANAMAVGATDQNNNRASRSQYGAGLDIVAPGVNVQSTYPGSTYASLNGTSMATPHVAGAAALVKQKNPSWSNVQIRNHLKNTATSLGSTNLYGSGLVNAEAATR
For B6, where the note is “Table 2”, the “relative activity, BMA” value was found to be 80% and the “relative activity, Boric acid” value came to 53%.

B7: A187D: protease of SEQ ID NO: 3 with amino acid substitution A187D in the count according to SEQ ID NO: 1 (protein, listed as Bacillus lentus)
chain: AQSVPWGISRVQAPAAHNRGLTGSGVKVAVLDTGISTHPDLNIRGGASFVPGEPSTQDGNGHGTHVAGTIAALNNSIGVLGVAPSAELYAVKVLGADGEGAISSIAQGLEWAGNNGMHVANLSLGSPSPSATLEQAVNSATSRGVLVVAASGNSGASSISYPARYANAMAVGATDQNNNRDSFSQYGAGLDIVAPGVNVQSTYPGSTYASLNGTSMATPHVAGAAALVKQKNPSWSNVQIRNHLKNTATSLGSTNLYGSGLVNAEAATR
Turning to B7, where the note is “Table 2”, the “relative activity, BMA” value turned out to be 79% and the “relative activity, Boric acid” value is on record as 47%.
